Measured values taken from article PMC6151538 (2017).

T1: fetuin (Bos taurus, UniProt P12763)
T1 chain: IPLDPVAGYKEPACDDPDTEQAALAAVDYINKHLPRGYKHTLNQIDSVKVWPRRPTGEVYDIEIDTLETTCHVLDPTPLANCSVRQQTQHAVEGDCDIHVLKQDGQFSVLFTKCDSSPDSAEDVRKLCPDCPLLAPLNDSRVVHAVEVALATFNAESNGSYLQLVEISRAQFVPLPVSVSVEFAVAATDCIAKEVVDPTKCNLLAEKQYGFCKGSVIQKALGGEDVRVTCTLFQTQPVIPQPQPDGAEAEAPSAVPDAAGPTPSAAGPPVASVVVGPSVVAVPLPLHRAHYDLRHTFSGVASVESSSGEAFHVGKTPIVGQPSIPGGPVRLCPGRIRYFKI

T2: asialofetuin (Bos taurus, UniProt P12763)
T2 chain: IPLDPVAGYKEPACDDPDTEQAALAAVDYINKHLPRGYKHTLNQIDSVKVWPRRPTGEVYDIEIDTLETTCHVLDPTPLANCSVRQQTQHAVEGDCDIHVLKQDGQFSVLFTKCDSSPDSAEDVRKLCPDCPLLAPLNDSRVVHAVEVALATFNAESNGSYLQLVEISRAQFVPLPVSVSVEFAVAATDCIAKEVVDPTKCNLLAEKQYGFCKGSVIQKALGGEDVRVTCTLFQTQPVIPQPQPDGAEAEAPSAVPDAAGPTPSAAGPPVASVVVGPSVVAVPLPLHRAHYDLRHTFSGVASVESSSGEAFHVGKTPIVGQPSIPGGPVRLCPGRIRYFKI


Columns and labels:
[1] = molecular target: T1, fetuin; experiment: solid-phase assay, Scatchard analysis
[2] = molecular target: T2, asialofetuin; experiment: solid-phase assay, Scatchard analysis

Row | Kd [1] [nM] | Kd [2] [nM] | Binder
1 | 93 | – | Gal-8 (NN) N-terminal CRD tandem homodimer (NN, no linker) (protein, engineered linker-free tandem of two Gal-8N CRDs, biotinylated; fetuin with sialylated N-glycans) MMLSLNNLQNIIYNPVIPFVGTIPDQLDPGTLIVIRGHVPSDADRFQVDLQNGSSMKPRADVAFHFNPRFKRAGCIVCNTLINEKWGREEITYDTPFKREKSFEIVIMVLKDKFQVAVNGKHTLLYGHRIGPEKIDTLGIYGKVNIHSIGFSFSS
2 | – | 148 | Gal-8 (NN) N-terminal CRD tandem homodimer (NN, no linker) (protein, engineered linker-free tandem of two Gal-8N CRDs, biotinylated; fetuin chemically desialylated (N-glycans)) MMLSLNNLQNIIYNPVIPFVGTIPDQLDPGTLIVIRGHVPSDADRFQVDLQNGSSMKPRADVAFHFNPRFKRAGCIVCNTLINEKWGREEITYDTPFKREKSFEIVIMVLKDKFQVAVNGKHTLLYGHRIGPEKIDTLGIYGKVNIHSIGFSFSS
